Measurements reported in patent US20250313612A1 (Adimab, published 2025).

Columns and labels:
[1] = molecular target: T1, RSV F protein of subtype A (strain A2) on recombinant mKate-RSV (Respiratory syncytial virus subtype A …, UniProt P03420 26-574); assay: cell-based or functional assay
[2] = molecular target: RSV F protein of subtype B (18537) on recombinant mKate-RSV (Respiratory syncytial virus subtype B …, UniProt P13843 26-574); assay: cell-based or functional assay
[3] = molecular target: T2, RSV F ectodomain stabilized in the postfusion conformation (F ΔFP), subtype A (Respiratory syncytial virus subtype A, UniProt P03420 26-109; P03420 147-524); assay: BLI, IgG on AHQ sensors, 100 nM antigen
T2 construct: extracellular domain; trimer; also called Postfusion subtype A; Postfusion RSV F

[4] = molecular target: T3, RSV F ectodomain stabilized in the postfusion conformation (F ΔFP), subtype B (Respiratory syncytial virus subtype B, UniProt P13843 26-109; P13843 147-524); assay: BLI, IgG on AHQ sensors, 100 nM antigen
T3 construct: extracellular domain; trimer; also called Postfusion subtype B

[5] = molecular target: T1, RSV F protein of subtype A (strain A2) …; assay: cell-based or functional assay; remark: listed apart in the source
[6] = molecular target: human metapneumovirus (HMPV) F protein on GFP-expressing hMPV (NL/1/00, A1 sublineage) (human metapneumovirus); assay: cell-based or functional assay

Row | Binder | Neut IC50 (µg/ml) subtype A [1] [µg/mL] | Neut IC50 (µg/ml) subtype B [2] [µg/mL] | Kd [3] [nM] | Kd [4] [nM] | RSV-A2 IC50 [5] [µg/mL] | HMPV-A1 IC50 [6] [µg/mL]
1 | ADI-14539 (antibody, V domains shown, IgG; also called Antibody Number 99) VH: QVQLVESGGGVVQPGRSLRLSCAASGFAFRVYDIHWVRQAPGKGLEWVAVAWSDGRDEFYADSVKGRITISRDNSKNTVYLQMSSLRVADTAVYYCARDSGTLTGLPHDAFDVWGQGTTVTVSS VL: DIQLTQSPSTLSASVGDRVTITCRASQSITTRLAWYQQKLGKAPKLLVYKASTLEIGVPSRFSGRGSGTEFTLTISSLQPDDFATYYCHHYNSYSWTFGQGTKVDIK | 0.727 | 0.302 | 0.738 | 5.71 |  | 
2 | ADI-14560 (antibody, V domains shown, IgG; also called Antibody Number 120) VH: QVQLVQSGPELKKPGESLKISCKASGYSFTSFWIAWVRQMPGKGLEFLGIIYPGDADTRYSPSFQGQVTISADKSINTAYLQWNNLKASDTAMYYCARQTTMTPDAFDLWGQGTTVTVSS VL: EIVLTQSPATLSLSPGERATISCRASQSVSSYLAWYQQKPGQAPRLLIYEASDRATGTPARFSGSGSGTDFTLTISSLEPEDFAVYYCQQRSNWGVGTFGQGTKVEIK | > 10 | > 10 | 0.874 | 0.329 |  | 
3 | ADI-14546 (antibody, V domains shown, IgG) VH: QVQLVQSGAEVKKPGSSVKVSCTASGGSFSTNSIAWLRQTPREGLEWMGGIIPVFGAAKYAQKFQGRVTISADASTTTAYLELHNLRSEDTAVYYCARGISPRTNSDWNHNYFYYYMDVWGKGTTVTVSS VL: ETTLTQSPGTLSLSPGERATLSCRASQSIFTIYLAWYQQKPGQAPRLLIYSASNRATGIPDRFSGSGSGTDFTLTISSLEPEDFAVYYCHHYGTSPHTFGQGTRLEIK | > 10 | > 10 | 0.589 | 0.472 |  | 
4 | ADI-14559 (antibody, V domains shown, IgG; also called Antibody Number 119) VH: EVQLLESGGGLVKPGGSLRLSCAASGFIFTNAWMSWVRQAPGKGLEWVGRIKRKTETGTTDYAPPVKGRFTISRDDSRSTLYLQMNSLKTEDTAVYYCTTGPPYQYYDSTGYSVVDYWGQGTLVTVSS VL: SYELTQPPSASGTPGQRVTISCSGSSSNIGSNIGINYVYWYQQLPGTAPKLLIYSTNQRPSGVPDRFSGSQSGTSASLAISGLRSEDEADYYCAAWDDSLSGPVFGGGTKLTVL | 0.057 | 0.031 | 0.204 | 0.129 |  | 
5 | ADI-14441 (antibody, V domains shown) VH: QVQLVQSGAEVKKPGSSVKISCKASGGTFNSQAIHWVRQAPGQDLEWMGNIIPGFGSPNSAQNFQGRVTFIADDSTGAAYMDLSSLKSEDTAVYYCATAGWFGESVHLDSWGQGTLVTVSS VL: not shown |  |  |  |  | > 25 | 37.8
6 | ADI-14549 (antibody, V domains shown, IgG) VH: EVQLVESGPALVKPTQTLTLTCTFSGFSLSSRRMCVSWIRQPPGKALEWLARIDWDDDKSYSTSLKTRLTIAKDTSKNQVVLTMTNMGPADTATYYCARTPIYDSSGYYLYYFDSWGQGTLVTVSS VL: not shown | > 10 | > 10 | 0.326 | 2.49 |  | 
7 | ADI-14448 (antibody, V domains shown) VH: EVQLVESGGGLVKPGGSLRLSCAASGSSFRYSYMSWVRQAPGKGLQWVASISPSSTYTDYADSVKGRSTISRDHDKISLQVNSLRGDDTAVYYCVRHMNLVMGPFAFDIWGRGTMVTVSS VL: QSVVTQPPSLSGAPGQRITISCTGSSSNIGAGYDVNWYQQLPGTAPKLLIYAKTNRPSGVPERFSGSESGTSASLAITGLQPEDEADYYCQSYDRIGMYVFGTGTKLTVL |  |  |  |  | 0.04 | 0.05
8 | ADI-14553 (antibody, V domains shown, IgG) VH: QVQLVQSGTEVKKPGSSVNVSCKAVGGKFTSYNINWVRQAPGQGLEWMGRIIPTLGITYFAQKFQGRLTINADRSTSTAYMDLSSLRSDDTAVYYCARSNPVARDFWSGYSDDSSYAMDVWGQGTTVTVSS VL: ETTLTQSPGTLSLSPGDRVSLSCRASQTVDKNYVAWYQQKPGQAPRLLIYGASKRAADIPDRFSGSGSGADFTLTISRLEPEDFAVYHCQQYGASAFSFGGGTKLEIK | > 10 | > 10 | 67.1 | 117 |  | 
9 | ADI-14501 (antibody, V domains shown) VH: QVQLVQSGAEVKKPGSSVKISCKASGGTFKSQAIHWVRQAPGQGLEWMGNIIPTYGSPNFAQRFLGRVTFIADDSTGAASMDLYRLTSEDTAVYYCATAGWFGELVRFDSWGQGTLVTVSS VL: DIVMTQSPATLSVSPGERATLSCRATESISSNLAWYQQKPGQAPRLLIYGASTRATGIPARFSGSGSGTEFTLTINSLQSEDFAVYYCQQYNNWPPLTFGGGTKVDIK |  |  |  |  | 12.4 | 31.4
10 | ADI-14536 (antibody, V domains shown, IgG; also called Antibody Number 96) VH: QVQLVQSGGGVVQPGRSLRLSCAASGFSFSSYGMHWVRQAPGKGLEWVAAIFYHEIKDYYADSVNGRFSISRDNSKNTLYLEMYSLKVEDTAVYYCARDSGTLTGLPHDAFDIWGQGTTVTVSS VL: DIQMTQSPSTLSASLGGRVTITCRASQSVTNRLAWYQHKPGKAPNLLIYKASTLEIGVPSRFSGSGSGTEFTLTISSLQPDDFATYYCQQYSSYSWTFGQGTKVEIK | 0.56 | 0.696 | 0.404 | 0.382 |  | 
11 | ADI-14554 (antibody, V domains shown, IgG) VH: QVQLVQSGGGLVKPGGSLRLSCAASGFAFSNAWMSWVRQAPGKGLEWLGRIKSETDGGTTDYAAPVKGRFSISRDDSRNTLYLQMNSLESEDTAVYYCTTGPPYKYFDSTGYSVVDYWGQGTLVTVSS VL: SYELTQPPSASGTPGQRVTISCSGSSSNIGSNYVYWYQQLPGTAPRLLIYSTNQRPSGVPDRFSGSQSGTSASLAISGLRSDDEADYYCAAWDDRMSGPVFGGGTKLTVL | 0.736 | 0.787 | 0.388 | 0.197 |  | 
12 | ADI-14552 (antibody, V domains shown, IgG) VH: EVQLLESGPELKKPGSSVKVSCKASADTFNGHSIAWVRQAPGQGLEWVGGFIPIFGKAYYAQNFQGTVTISADSSTRTVYMDLFNLRSEDTAVYYCARSRKNVIGDTSAWEHMYFYMDVWGTGTTVTVSS VL: EIVLTQSPGTLSLSPGERVTLSCRASESINKNTYLAWYQQKPGQAPRLLIYGASSRATGIPDRFSGSGSGTDFTLTISRLEPEDSAVYYCQQYGRSMTFGGGTKVEIK | > 10 | > 10 | 1.27 | 1.11 |  | 
13 | ADI-14547 (antibody, V domains shown, IgG; also called Antibody Number 107) VH: EVQLLESGPVLVKPTETLTLTCTVSGFSLANPDVAVAWIRQPPGKALEWLAHIFSGDETSYTTSLQNRLTISKDTSKSQVVLIMTKMDPRDTGTYFCARVLTTWHGPDYWGQGTTVTVSS VL: ETTLTQSPLSLPVTLGQPASISCRSDQSLVYHNGNTYVSWFHQRPGQSPRRLIYKVSIRDSGVPDRFSGSGSGTDFALKISRVEAEDLGVYYCMQGSHWPHTFGQGTKVDIK | 0.198 | 0.252 | 0.169 | 0.269 |  | 
14 | ADI-14561 (antibody, V domains shown, IgG) VH: QVQLVQSGAEVKKPGSSVRVTCKASGGTVSDYAITWVRQAPGQGLEWMGGFIPMFGVAKDAEKFQGRVTLTGDKSTNAVYMELSSLTSEDTAVYYCARSKRLPAGLSTSDYYYYYLDVWGKGTTVTVSS VL: EIVLTQSPGTLSLSPGEGATLSCTASQNVFRTHVAWYQQTPGQAPRLLIYGGSTRATGIPDRFSGSGSGTDFTLIISRLEPEDFAVYYCHHFGTTPWTFGQGTKVEIK | > 10 | > 10 | 3.09 | 2.28 |  | 
